# In US20050233350A1:
# Legend:
# [1] = target: T1, recombinant HLA-A2.1 protein with β2-microglobulin (human); test: cell free competition assay: inhibition of binding of fluorescent [..] to recombinant HLA-A2.1 and β2-microglobulin, gel filtration, 4 experiments; conditions: remark: other sources report otherwise
# [2] = target: T1, recombinant HLA-A2.1 protein with …; test: cell free HLA-A2.1 peptide binding (competition) assay, HA-1^R against HA-1^H; conditions: remark: other sources report otherwise
Binder,IC50 [1],fold lower binding affinity against the HA-1^H peptide [2]
"VLRDDLLEA [HA-1^R peptide … (allelic counterpart of HA-1, synthetic)]",365 nM,10 fold
"VLHDDLLEA [HA-1^H peptide … (minor histocompatibility antigen HA-1 nonapeptide, synthetic)]",30 nM,
